2 molecules from patent publication US20220163515, “PUMILIO DOMAIN-BASED MODULAR PROTEIN ARCHITECTURE FOR RNA BINDING” (Massachusetts Institute of Technology, published 2022) can be followed below.

The target of data set [1] is T1, PumHD wild-type (Pumilio homology domain) (Homo sapiens, UniProt Q14671 Q14671:828-1176). Briefly: FP; no detectable binding, fit did not converge. The settings on record: tags: 6xHis (pBadHisB vector); label: 5'-FAM. The procedure: (§1) Methods Enzymol 469:287-302; Heyduk T, Ma Y, Tang H, Ebright R H (1996) Fluorescence anisotropy: rapid, quantitative assay for protein-DNA and protein-protein interaction. Methods Enzymol 274:492-503; Dinman J (2013) Biophysical approaches to translational control of gene expression. 317].
(§2) The cognate and non-cognate RNA targets for the purified Pum variant proteins were synthesized with 5′-labeled FAM, 6-carboxyfluorescein (IDT). […] 50 nM cognate RNA was mixed with increasing concentration of the protein (measured by NanoDrop, Thermo Scientific) in the binding buffer (25 mM Tris-HCl pH 7.5, 0.5 mM EDTA, 50 mM KCl, 0.1 mg/mL BSA). The 100 μL samples were assayed, in duplicates, for fluorescence anisotropy using a Cary Eclipse fluorimeter (Varian) with Manual Polarizer Accessory (Varian). […] Fluorescence anisotropy was calculated as a unitless ratio defined as R═(I₌−I_{⊥})/(I₌+2I_{⊥}), where I is the emission intensity parallel (I₌) or perpendicular (I_{⊥}) to the direction of polarization of the excitation source. […] The Kd of each protein to its cognate and non-cognate RNA was subsequently measured, using the protein concentration corrected to the active protein fraction, with constant concentration of RNA. The Kd was calculated from a non-linear fit in IgorPro 6.22 of the anisotropy vs. protein concentration plot to the equation [Qu X, Chaires J B (2000) Analysis of drug-DNA binding data.

The target of data set [2] is T1, PumHD wild-type (Pumilio homology …). Briefly: FP; 25 mM Tris-HCl pH 7.5, 0.5 mM EDTA, 50 mM KCl, 0.1 mg/mL BSA; active-fraction corrected. The settings on record: tags: 6xHis (pBadHisB vector); label: 5'-FAM. The procedure: as §1, §2

T1 sequence (Q14671 828-1176, one chain of several): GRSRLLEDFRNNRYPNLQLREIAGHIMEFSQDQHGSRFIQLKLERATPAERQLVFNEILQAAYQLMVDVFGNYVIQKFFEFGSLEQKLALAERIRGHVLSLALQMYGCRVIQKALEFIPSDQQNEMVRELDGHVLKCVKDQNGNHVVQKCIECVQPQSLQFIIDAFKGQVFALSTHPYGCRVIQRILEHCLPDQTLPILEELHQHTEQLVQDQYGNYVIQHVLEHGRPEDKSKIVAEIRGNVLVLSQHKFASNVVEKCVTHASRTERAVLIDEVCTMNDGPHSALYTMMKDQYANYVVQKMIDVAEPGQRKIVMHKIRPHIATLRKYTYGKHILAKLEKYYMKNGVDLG

B1: wild-type noncognate (ssRNA)
RNA: ACAUAUAU
Turning to B1, in data set [1], the binding result is given as “no binding”.

B2: wild-type NRE cognate (ssRNA)
RNA: CCAGAAUUGUAUAUAUUCG
In general, Kd refers to a measure of binding affinity in units of concentration. A high value points to weaker binding. B2 registered a Kd in data set [2] of 88 pM.
